{
  "source": "patent US20120283421A1",
  "binders": {"B1": {"name": "Ara h 2 (purified from peanut) (protein)", "chain": "QQWELQGDRRCQSQLERANLRPCEQHLMQKIQRDEDSYERDPYSPSQDPYSPSPYDRRGAGSSQHQERCCNELNEFENNQRCMCEALQQIMENQSDRLQGRQQEQQFKRELRNLPQQCGLRAPQRCDLDVESGGRDRY", "modifications": "20% carbohydrate"}},
  "molecular_target": "nine-person peanut-specific IgE antibody pool",
  "experiment": "competitive ELISA inhibition, pooled serum IgE on coated crude peanut",
  "data": [
    {"binder": "B1", "values": [
      {"measurement": "IC50", "result": 0.4, "unit": "ng/mL"}
    ]}
  ]
}
